In one assay the target is T1, human MUC18 (human, UniProt P43121 24-646).
T1 sequence: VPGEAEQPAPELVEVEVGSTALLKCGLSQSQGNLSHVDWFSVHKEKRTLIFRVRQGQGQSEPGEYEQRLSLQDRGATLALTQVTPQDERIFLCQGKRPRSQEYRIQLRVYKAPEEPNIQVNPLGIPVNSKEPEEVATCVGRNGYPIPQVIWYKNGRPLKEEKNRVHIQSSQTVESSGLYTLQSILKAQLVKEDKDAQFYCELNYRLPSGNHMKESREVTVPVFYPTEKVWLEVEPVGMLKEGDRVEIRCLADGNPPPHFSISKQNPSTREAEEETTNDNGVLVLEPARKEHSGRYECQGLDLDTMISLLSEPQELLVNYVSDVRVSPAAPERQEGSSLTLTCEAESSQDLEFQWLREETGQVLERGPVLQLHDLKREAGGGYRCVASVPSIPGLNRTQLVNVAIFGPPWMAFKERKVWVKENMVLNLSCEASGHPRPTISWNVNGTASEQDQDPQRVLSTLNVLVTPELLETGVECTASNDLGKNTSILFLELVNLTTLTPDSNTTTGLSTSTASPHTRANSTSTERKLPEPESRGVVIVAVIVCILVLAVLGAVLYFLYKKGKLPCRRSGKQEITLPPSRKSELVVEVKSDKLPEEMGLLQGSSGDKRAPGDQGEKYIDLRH
The experiment in a line: cell-based or functional assay.

Assay [1] has as its target T2, recombinant MUC18 protein (rProtein) (Homo sapiens (Human), UniProt P43121 24-559).
T2 sequence: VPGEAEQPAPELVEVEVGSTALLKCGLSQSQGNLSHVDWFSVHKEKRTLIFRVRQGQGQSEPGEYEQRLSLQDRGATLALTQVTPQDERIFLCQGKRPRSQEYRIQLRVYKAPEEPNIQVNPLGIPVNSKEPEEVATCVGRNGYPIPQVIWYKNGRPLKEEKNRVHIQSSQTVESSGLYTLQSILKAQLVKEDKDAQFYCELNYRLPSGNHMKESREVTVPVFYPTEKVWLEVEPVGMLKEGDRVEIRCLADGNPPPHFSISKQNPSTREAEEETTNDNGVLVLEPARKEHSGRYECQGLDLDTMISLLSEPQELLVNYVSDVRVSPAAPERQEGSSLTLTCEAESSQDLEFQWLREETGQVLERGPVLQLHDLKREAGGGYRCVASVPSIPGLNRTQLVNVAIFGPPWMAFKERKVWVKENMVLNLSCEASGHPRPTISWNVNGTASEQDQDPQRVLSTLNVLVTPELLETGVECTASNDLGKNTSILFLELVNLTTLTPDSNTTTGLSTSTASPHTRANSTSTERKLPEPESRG
The assay is described as follows: ELISA titration, antibody with varying concentrations of recombinant MUC18 protein. On the procedure: Antibodies were incubated with varying concentrations of recombinant MUC18 protein (rProtein).
A general note: ELISA stands for enzyme-linked immunosorbent assay.

Numbering of substitutions follows the chain as printed.

B1: J253-vc-MMAE (antibody, V domains shown)
VH: QVQLQQSGAELVKPGASVKLSCKASGYTFTSYDINWVRQRPEQGLEWIGWIFPGDGSTDYNEKFKGKATLTTDKSSSTAYMQLSRLTSEDSAVYFCARYHFFDNWGQGTTLTVSS
VL: DIVITQDELSNPVTSGESVSISCRSSKSLLYKDGKTYLSWFLQRPGQSPQLLIYLMSTRASGVSDRFSGSGSGTDFTLEISRVKAEDVGVYYCQQLVEYPYTFGGGTKLEIK
modifications: maleimidocaproyl-Val-Cit-PAB-MMAE coupled to the antibody by a thiol-based reaction; sites and drug load not stated
Regarding B1, in the assay with human MUC18, the “IC50 of cell viability, GAK cells” value stood at 0.297 nM; the “IC50 of cell viability, HMV-II cells” value was found to be 0.103 nM; the “IC50 of cell viability, SK-MEL-2 cells” value worked out at 0.115 nM.

B2: J253 (antibody, V domains shown)
VH: B1 VH
VL: B1 VL
notes: also called anti-MUC18 antibody (J253)
In the case of B2, the Binding affinity in assay [1] was 0.39 nM.

B3: CL070349 (antibody, V domains shown)
VH: DVQLQESGPGLVKPSQSLSLTCSVTGYSITSGFYWNWIRQLPGNKLEWLGYINFGGTNNYNPSLKIRGSITRDTSKNQFFLKLNSVTTEDTATYYCARGGNDGGFTYWGQGTLVTVSA
VL: ENVLTQSPAIVAASLGQKVTMTCRASSSVSSTYFHWYQQKSGASPKPLLHRTSNLASGVPARFSGSGSGTSYSLTISSVEAEDDATYYCHQWSGYPYTFGGGTKLEIK
notes: also called anti-MUC18 antibody CL070349
For the molecule B3, in assay [1], the Binding affinity was 1.56 nM.

B4: CL070336 (antibody, V domains shown)
VH: DVQLQESGPDLVKPYQSLSLTCTVTGYSITSGYSWHWIRQFPGNKLEWLGYMHYSATPNYNPSLKSRISITRDTSKNQFFLQLNSVTTEDTATYYCSRSLNWDVLDYWGQGTTLIVSS
VL: DIVLTQSPAYLPVSLGQRATISCRASKSVRTSGYNYLHWYQQKPGQPPKLLIYLASNPESGVPGRFSGSGSGTDFTLNIHPVEEEDSATYYCQHSREFPFTFGGGTQLEIK
notes: also called anti-MUC18 antibody CL070336
Consider B4, for which the Binding affinity in assay [1] was determined as 0.39 nM.

B5: CL070335 (antibody, V domains shown)
VH: B4 VH with Y15S, L49M, M52I, A56T, P58T, N84S, Y95F
VL: B4 VL with N35S, P58L, G64D, S87A, S95T, Q107K
notes: also called anti-MUC18 antibody CL070335
Turning to B5, in assay [1], the Binding affinity was determined as 0.39 nM.

B6: CL070370 (antibody, V domains shown)
VH: QIQLVQSGPELKKPGETVKISCKTSGYTFTDYSMHWVKQAPRKGLKWMGWINTETGEPTYADDFKGRFAFSLETSASTAYLQINNLRNEDTATYFCVSYDYDAVSYWGQGTLVTVSA
VL: DIVMTQSHKFMSTSVGDRVNITCKASQYVGAAVAWYQQKPGQSPKLLIYWASTRHTGVPDRFTGSGSGTDFTLTINNVQSEDLADYFCQQYGNYRTFGGGTKLEIK
notes: also called anti-MUC18 antibody CL070370
With B6, the Binding affinity in assay [1] stood at 3.12 nM.

B7: CL070324 (antibody, V domains shown)
VH: EVLLQQSGPELVKPGASVKIPCKASGYTFTDYNMDWVKQSHGKSLEWIGDINPNNGATLYNQNFRGKATLTVDKSSSTAYMELRSLTSEDTAVYYCTRSGYDDYYALDYWGQGTSVTVSS
VL: QTVLTQSPAIMSASLGEEITLTCSASSSVGYMHWYQQKSGTSPKLLIYSTSNLASGVPSRFSGRGSGTFYSLTISTVEAEDAADYYCHQWSNYPSTFGTGTKLELK
notes: also called anti-MUC18 antibody CL070324
Consider B7, for which the Binding affinity in assay [1] came to 50 nM.

B8: CL070333 (antibody, V domains shown)
VH: QVQLQQSGPELVKPGTSVKISCKASGFTFTGYYLHWLKQRPGQGLEWIGWIYPGNVNTEFNEKFKGQATLTADKSSSTAYMQLSSLTSEDSAVYFCARSGYFASSYEFAYWGQGTLVTVSA
VL: DIQMTQSPASLSASVGETVTITCRASENIYSYLAWYQQKQGKSPQLLVYNAKTLAEGVPSRFSVSGSGTHFSLKINSLQPEDFGSYYCQHHYGTPLTFGAGTKLELK
notes: also called anti-MUC18 antibody CL070333
For the molecule B8, in assay [1], the Binding affinity amounted to 12.5 nM.

B9: CL070341 (antibody, V domains shown)
VH: EVQLVESGGDLVRPGGSLKLSCAASGFTFSTYGMSWVRQSPDKRLEWVATINSRASYTYYPDSVKGRFTISRDNAKNTLYLQMSSLKSEDTGLYFCARHRRDWDSYYAMDYWGQGTSVTVSS
VL: NIMLTQSPSSLAVSTGDKVTMNCKSSQSVLYNSNQKNYLAWYQQKPGQSPTLLIYWASTSESGVPDRFTGSGSGTDFTLTISSVQAEDLAVYYCHQYLSSWTFGGGTKLEIK
notes: also called anti-MUC18 antibody CL070341
Consider B9, for which the Binding affinity in assay [1] stood at 50 nM.

B10: CL070350 (antibody, V domains shown)
VH: AVQLVESGGDLLRPGGSLKLSCVASGFTFNNYGMSWVRQTPDKRLEWVATINRGGSYTYYTDSVKGRFTISRDNAKKTLYLQMSSLKSEDTAMYYCARHRRDWDSYYAMDYWGQGTSVTVSS
VL: B9 VL with L4M, T15A, T20A, N22S, Q27R, Q44L, T51K, S60R, L109V
notes: also called anti-MUC18 antibody CL070350
Regarding B10, in assay [1], the Binding affinity was found to be 0.19 nM.

These data come from US20250367313A1 (MULTITUDE, published 2025).
